Experimental findings from paper PMC7709199, “Homogeneously N-glycosylated proteins derived from the GlycoDelete HEK293 cell line enable diffraction-quality crystallogenesis” (Acta Crystallographica. Section D, Structural Biology, 2020) are described below.

One data set is described as follows: X-ray diffraction. The note with it: glycan changed form; control: HEK293T-expressed protein.
The nature of data set [1]: achievable concentration for crystal screens. Particulars: glycan lost; control: undigested HEK293S MGAT1−/− material.
Data set [2] is described as follows: achievable concentration of CSF-1 complex. The note with it: glycan changed form; control: wild-type (HEK293T) material.
Data set [3] is described as follows: X-ray diffraction of CSF-1 complex crystals. Particulars: glycan changed form; control: HEK293T-expressed receptor.
A further data set can be described thus: initial expression tests. Particulars: glycan lost; control: other CSF-1RD1–D3 constructs.
Data set [4] concerns the molecule itself. The data set can be described thus: crystal structure; DSCAM_(Ig7–Ig9) from HEK293 GlycoDelete cells; space group C2, one molecule in the asymmetric unit, oligomer by crystallographic symmetry; 0.2 M calcium acetate, 10% PEG 8000, 0.1 M HEPES pH 7.5, 3% glycerol; 1.85 Å.
Data set [5] concerns the molecule itself. The data set can be described thus: SEC; size-exclusion chromatography of IMAC-purified murine IL-12B from GD cells. A general note: SEC sorts molecules by how far they enter the pores of the column.

For “Down syndrome cell-adhesion molecule (DSCAMIg7–Ig9): GlycoDelete expression”, in the data set “X-ray diffraction”, the “other: crystal diffraction quality, other: diffraction limit” value is listed as “increases, 1.85 vs ∼8”.
“colony-stimulating factor 1 receptor (CSF-1RD1–D3): EndoH digestion”: in data set [1], the “other: solubility” value is “decreases”.
For “colony-stimulating factor 1 receptor (CSF-1RD1–D3): GlycoDelete expression”, the “other: solubility” value in data set [2] is “no change”.
Consider “colony-stimulating factor 1 receptor (CSF-1RD1–D3): HEK293S MGAT1−/− expression”, for which, in data set [3], the “other: crystal diffraction quality, other: diffraction limit” value is “increases, 4.5 vs did not diffract”.
For “colony-stimulating factor 1 receptor (CSF-1RD1–D3): N73Q”, the expression_or_secretion result in the data set “initial expression tests” is reported as “abolishes”.
For “colony-stimulating factor 1 receptor (CSF-1RD1–D3): N153Q”, the expression_or_secretion result in the data set “initial expression tests” was “no change”.
For the molecule “colony-stimulating factor 1 receptor (CSF-1RD1–D3): N240Q”, in “initial expression tests”, the expression_or_secretion result is reported as “no change”.
Turning to “colony-stimulating factor 1 receptor (CSF-1RD1–D3): N275Q”, the expression_or_secretion result in the data set “initial expression tests” was “no change”.

B1: human Down syndrome cell-adhesion molecule fragment DSCAM_(Ig7–Ig9) (domain or fragment)
chain: TVPPFIQPFEFPRFSIGQRVFIPCVVVSGDLPITITWQKDGRPIPGSLGVTIDNIDFTSSLRISNLSLMHNGNYTCIARNEAAAVEHQSQLIVRVPPKFVVQPRDQDGIYGKAVILNCSAEGYPVPTIVWKFSKGAGVPQFQPIALNGRIQVLSNGSLLIKHVVEEDSGYYLCKVSNDVGADVSKSMYLTVKIPAMITSYPNTTLATQGQKKEMSCTAHGEKPIIVRWEKEDRIINPEMARYLVSTKEVGEEVISTLQILPTVREDSGFFSCHAINSYGEDRGIIQLTVQEE
modifications: GlycoDelete N-glycan stubs at Asn666, Asn710, Asn748 and Asn795 (full Neu5AcGalGlcNAc at Asn795)
notes: one-residue cloning scar (Thr594) at the N-terminus; Down syndrome cell-adhesion molecule (DSCAM), human, UniProt O60469, residues 595–884 (Val595–Glu884), immunoglobulin domains Ig7, Ig8 and Ig9; one-residue cloning scar (Glu885) before the C-terminal 6×His tag; Expressed from pXLG behind a 34-residue signal peptide of pregnancy-specific glycoprotein 1 (UniProt P11464); The signal peptide is not …
Take B1: the binding result in data set [4] is reported as “binds”.

B2: murine IL-12B (natural protein, UniProt P43432 23-335, looked up)
chain: MWELEKDVYVVEVDWTPDAPGETVNLTCDTPEEDDITWTSDQRHGVIGSGKTLTITVKEFLDAGQYTCHKGGETLSHSHLLLHKKENGIWSTEILKNFKNKTFLKCEAPNYSGRFTCSWLVQRNMDLKFNIKSSSSSPDSRAVTCGMASLSAEKVTLDQRDYEKYSVSCQEDVTCPTAEETLPIELALEARQQNKYENYSTSFFIRDIIKPDPPKNLQMKPLKNSQVEVSWEYPDSWSTPHSYFSLKFFVRIQRKKEKMKETEEGCNQKGAFLVEKTSTEVQCKGGNVCVQAQDRYYNSSCSKWACVPCRVRS
modifications: immature N-linked glycan on Asn220 (modelled as Man4GlcNAc2)
notes: signal peptide in the construct; The dimeric SEC fractions (disulfide-linked homodimer through Cys197) were pooled, polished on Mono Q and crystallised; also called IL-12p40 (monomer); IL-12p80 (homodimer); source: HEK293 GlycoDelete cells, transfected, secreted; purified (IMAC, SEC, Mono Q anion exchange)
As usually defined, the stoichiometry N is a count of units in the complex or per binding partner. Consider B2, for which, in data set [5], the “stoichiometry N” value amounted to 2.
